Reference: patent publication US20200407424A1 (FRAUNHOFER GESELLSCHAFT ZUR F RDERUNG DER ANGEWANDTEN …, published 2020)
Like-named read-outs stand apart in the source and are kept apart here. Square brackets hold non-standard residues; d marks the D form. Ends that are not written are not given here. Cit = NC(=O)NCCC[C@H](N)C(=O)O

How the values were obtained:
[1] = biological target: T1, recombinant MHC class II protein of the HLA DRB1 0101 genotype (human); assay: in vitro binding assay
T1 construct: construct not described

[2] = biological target: T2, recombinant MHC class II protein of the HLA DRB1 0401 genotype (human); assay: in vitro binding assay
T2 construct: construct not described; also called HLA-DR0401

[3] = biological target: T2, recombinant MHC class II protein of the …; assay: binds MHC in vitro
[4] = biological target: T1, recombinant MHC class II protein of the …; assay: in vitro binding assay; remark: listed apart in the source
[5] = biological target: T3, recombinant MHC class II protein of the HLA DRB1 0404 genotype (human); assay: in vitro binding assay
T3 construct: construct not described

[6] = biological target: T4, recombinant MHC class II protein of the HLA DRB1 0405 genotype (human); assay: in vitro binding assay
T4 construct: construct not described

[7] = biological target: T5, recombinant MHC class II protein of the HLA DRB1 0408 genotype (human); assay: in vitro binding assay
T5 construct: construct not described

[8] = biological target: T6, recombinant MHC class II protein of the HLA DRB1 1001 genotype (human); assay: in vitro binding assay
T6 construct: construct not described

[9] = biological target: T5, recombinant MHC class II protein of the …; assay: in vitro binding assay; remark: listed apart in the source
[10] = biological target: T6, recombinant MHC class II protein of the …; assay: in vitro binding assay; remark: listed apart in the source
[11] = biological target: T3, recombinant MHC class II protein of the …; assay: in vitro binding assay; remark: listed apart in the source
[12] = biological target: T1, recombinant MHC class II protein of the …; assay: in vitro binding assay; remark: listed apart in the source
[13] = biological target: T2, recombinant MHC class II protein of the …; assay: in vitro binding assay; remark: listed apart in the source
[14] = biological target: T3, recombinant MHC class II protein of the …; assay: in vitro binding assay; remark: listed apart in the source
[15] = biological target: T4, recombinant MHC class II protein of the …; assay: in vitro binding assay; remark: listed apart in the source

KRIAKAVNEKSCNCL [corresponding non-citrullinated peptide of a-enolase peptide 313]: binds [1]; binds [2].

KRIAKAVNEKSCNCL [a-enolase peptide ref no 66]: binds [3]; binds [4]; binds [5]. KRIAKAVNEKSCNCL [a-enolase peptide ref no 66]: binds [6]; binds [7]; no binding [8].

QGP[Cit]GLPGTPGTDGP [citrullinated type II collagen peptide ref no 384]: binds [9]; binds [10].

RYMGKGVSKAVEHIN [corresponding non-citrullinated peptide of a-enolase peptide 297]: binds [1]; no binding [2].

MSILKIHAREIFDSR [corresponding non-citrullinated peptide of a-enolase peptide 287]: binds [1]; no binding [2]; binds [11].

GIVGLPGQRGERGFP [type II collagen peptide ref no 242]: binds [12]; binds [13]; binds [14]. GIVGLPGQRGERGFP [type II collagen peptide ref no 242]: binds [15].
